The text below walks through data of patent publication US11459578B2, “Carbon fixation systems in plants and algae” (NMC, INC., priority 2014, dated 2022).

What all share (type): in vivo
Test [1] deals with Arabidopsis. Nature of the test: Growth phenotypes of transgenic Arabidopsis. From the text:
(§1) Previously, reconstitution of a functional inorganic CCM in C3 plants to suppress photorespiration and enhance photosynthesis was proposed. In WO 2012/125737, it was hypothesized that expression of a minimum of three algal CCM proteins would be sufficient to elevate internal plastid CO2 concentrations high enough to suppress photorespiration. These three algal CCM genes included the Chlamydomonas plasma membrane-localized and ATP-dependent bicarbonate transporter, HLA3; the chloroplast envelope localized bicarbonate anion transporter, LCIA; and a chloroplast stromal-localized carbonic anhydrase (HCA-II) to accelerate conversion of bicarbonate into CO2. […] To test this hypothesis, we generated multiple independent transgenic Arabidopsis and Camelina plants expressing each CCM gene as a single gene construct, as well as a stacked 3-gene construct. The expression of each gene was controlled by the light-regulated Cab1 gene promoter.
Finally, we also grew transgenics on ammonium with sucrose which would presumably provide additional ATP via respiration. We hypothesized that growth on nitrate or ammonium with sucrose would provide additional ATP that could potentially drive HLA3 activity.

In test [2] the test system is Camelina. The experiment in a line: CO2-dependent photosynthetic rates of transgenic Camelina. The source says: FIGS. 5A-5C. Growth phenotypes of WT and LCIA transgenic (T1) Arabidopsis plants four weeks after germination. (B) Four-week-old WT (left 4 plants) and independent transgenic Camelina (right 4 plants) expressing LCIA. (C) CO2-dependent photosynthetic rates of WT and LCIA transgenic Camelina.
We propose that the substantially greater carbon sink-strength of Camelina relative to Arabidopsis accounts for the enhanced growth phenotype observed in Camelina LCIA plants. In support of this hypothesis, we observed that Camelina LCIA transgenics had higher CO2-dependent rates of photosynthesis and lower CO2 compensation points (40 vs. 53 ppm CO2) than WT plants indicative of facilitated inorganic carbon uptake by LCIA (FIG. 5C).

In test [3] the test system is Camelina. The experiment in a line: Growth phenotypes and seed recovery of transgenic Camelina.
From the text: as §1

“Also recorded” adds a separate entry of the source.

B1: LCIA: chloroplast envelope localized bicarbonate anion transporter, expressed in transgenic plants (protein, listed as Chlamydomonas reinhardtii)
chain: MQTTMTRPCLAQPVLRSRVLRSPMRVVAASAPTAVTTVVTSNGNGNGHFQAATTPVPPTPAPVAVSAPVRAVSVLTPPQVYENAINVGAYKAGLTPLATFVQGIQAGAYIAFGAFLAISVGGNIPGVAAANPGLAKLLFALVFPVGLSMVTNCGAELFTGNTMMLTCALIEKKATWGQLLKNWSVSYFGNFVGSIAMVAAVVATGCLTTNTLPVQMATLKANLGFTEVLSRSILCNWLVCCAVWSASAATSLPGRILALWPCITAFVAIGLEHSVANMFVIPLGMMLGAEVTWSQFFFNNLIPVTLGNTIAGVLMMAIAYSISFGSLGKSAKPATA
For the molecule B1, the “growth phenotype relative to WT” value in test [1] is “substantially impaired in growth; also recorded: severely depressed growth phenotypes”. In test [2], the “CO2-dependent photosynthetic rates relative to WT” value is “higher CO2-dependent photosynthetic rates”, the CO2 compensation point is 40 ppm CO2 and the “CO2 compensation points relative to WT” value was “reduced CO2 compensation points”. For the same molecule, in test [2] (ambient CO2 concentrations), the “higher photosynthetic rates than WT” value is reported as “up to 25%”. In addition, in test [3], the “growth phenotype / viability relative to WT” value was “grew better than WT; also recorded: increased growth rates”.

B2: HLA3: Chlamydomonas plasma membrane-localized and ATP-dependent bicarbonate transporter, expressed in transgenic plants (protein, listed as Chlamydomonas reinhardtii)
chain: MLPGLGVILLVLPMQYYFGYKIVQIKLQNAKHVALRSAIMQEVLPAIKLVKYYAWEQFFENQISKVRREEIRLNFWNCVMKVINVACVFCVPPMTAFVIFTTYEFQRARLVSSVAFTTLSLFNILRFPLVVLPKALRAVSEANASLQRLEAYLLEEVPSGTAAVKTPKNAPPGAVIENGVFHHPSNPNWHLHVPKFEVKPGQVVAVVGRIAAGKSSLVQAILGNMVKEHGSFNVGGRISYVPQNPWLQNLSLRDNVLFGEQFDENKYTDVIESCALTLDLQILSNGDQSKAGIRGVNFSGGQRQRVNLARCAYADADLVLLDNALSAVDHHTAHHIFDKCIKGLFSDKAVVLVTHQIEFMPRCDNVAIMDEGRCLYFGKWNEEAQHLLGKLLPITHLLHAAGSQEAPPAPKKKAEDKAGPQKSQSLQLTLAPTSIGKPTEKPKDVQKLTAYQAALIYTWYGNLFLVGVCFFFFLAAQCSRQISDFWVRWWVNDEYKKFPVKGEQDSAATTFYCLIYLLLVGLFYIFMIFRGATFLWWVLKSSETIRRKALHNVLNAPMGFFLVTPVGDLLLNFTKDQDIMDENLPDAVHFMGIYGLILLATTITVSVTINFFAAFTGALIIMTLIMLSIYLPAATALKKARAVSGGMLVGLVAEVLEGLGVVQAFNKQEYFIEEAARRTNITNSAVFNAEALNLWLAFWCDFIGACLVGVVSAFAVGMAKDLGGATVGLAFSNIIQMLVFYTWVVRFISESISLFNSVEGMAYLADYVPHDGVFYDQRQKDGVAKQIVLPDGNIVPAASKVQVVVDDAALARWPATGNIRFEDVWMQYRLDAPWALKGVTFKINDGEKVGAVGRTGSGKSTTLLALYRMFELGKGRILVDGVDIATLSLKRLRTGLSIIPQEPVMFTGTVRSNLDPFGEFKDDAILWEVLKKVGLEDQAQHAGGLDGQVDGTGGKAWSLGQMQLVCLARAALRAVPILCLDEATAAMDPHTEAIVQQTIKKVFDDRTTITIAHRLDTIIESDKIIVMEQGSLMEYESPSKLLANRDSMFSKLVDKTGPAAAAALRKMAEDFWSTRSAQGRNQ
Regarding B2, in test [1], the “growth phenotype relative to WT” value is given as “reduced growth phenotypes”. The “growth in the presence of ammonium” value in test [1] (ammonium) is given as “none of the Arabidopsis HLA3 transgenics (4 independent lines) grew”. The “growth on ammonium with sucrose” value in test [1] (ammonium plus sucrose) is given as “rescued”. For the same molecule, in test [1] (nitrate), the growth on nitrate result was “survived”. Also, the “growth phenotype / viability relative to WT” value in test [3] is “no viable seeds were recovered”.
